From PMC4658667

Assays:
[1] = molecular target: CdiI^Nlact immunity protein from Neisseria lactamica ATCC 23970, His6-tagged (Neisseria lactamica ATCC 23970); assay: BLI
[2] = molecular target: CdiIo11^EC869 immunity protein from Escherichia coli EC869, His6-tagged (Escherichia coli EC869); assay: BLI

With “CdiA-CTo11^EC869, orphan-11 CdiA-CT toxin from Escherichia coli EC869 (domain or fragment)” as the substance, how does the Kd [1] read?
Its Kd is 82 µM.

How did the Kd [2] turn out when “CdiA-CTo11^EC869/Δβ4β5, CdiA-CTo11^EC869 with the β-hairpin (Lys242–Thr252) replaced by a Gly-Ser-Gly linker (domain or fragment)” was run?
Its Kd is greater than 300 µM.
